Measurements: patent US20170218047A1, “NOVEL FUSION PARTNERS FOR THE PURPOSE OF CRYSTALLIZING G-PROTEIN COUPLED RECEPTORS” (THE SCRIPS RESEARCH INSTITUTE, priority 2011, published 2017)

Assay: Size exclusion chromatography (SEC) of purified S1P1-fusion partner proteins
Format: physicochemical
Conditions: presence or absence of ligand
Procedure: S1P1-fusion partner proteins (“S1P1 fusion receptors”) were purified from membranes by dodecyl-maltoside (DDM) extraction followed by immobilized metal affinity chromatography (IMAC) on Talon resin (Clontech) as detailed below. Frozen cellular membranes were thawed by adding room temperature lysis buffer to a total volume of 25 mL. The S1P1 receptor antagonist W146 was added to a final concentration of 125 μM. The mixture was allowed to incubate at room temperature for 1 hour to ensure complete saturation of the receptor with ligand followed by addition of iodoacetamide to a concentration of 1 mg/mL and an additional 1 hour incubation at 4° C. Receptor solubilization was initiated by addition of detergent and cholesteryl hemisuccinate (CHS) to achieve a final concentration of 0.5% DDM 0.1% CHS. The solubilization buffer consisted of the following mixture: 50 mM Hepes pH 7.5; 800 mM NaCl; 30 mM Imidazole; 0.1% DDM 0.02% CHS; 125 μM W146. […]
Eluted proteins were analyzed by size-exclusion chromatography (SEC) followed by SDS-PAGE. […] SEC fractions corresponding to S1P1-fusion partner proteins were evaluated separated by SDS-PAGE on a 10% gel and stained, confirming that each S1P1-fusion partner protein could be purified to near-homogeneity (data not shown).

B1: S1P1-flavodoxin: S1P1 receptor with flavodoxin replacing part of ICL3, SEQ ID NO: 3 (protein, listed as Homo sapiens)
chain: MGPTSVPLVKAHRSSVSDYVNYDIIVRHYNYTGKLNISADKENSIKLTSVVFILICCFIILENIFVLLTIWKTKKFHRPMYYFIGNLALSDLLAGVAYTANLLLSGATTYKLTPAQWFLREGSMFVALSASVFSLLAIAIERYITMLKMKLHNGSNNFRLFLLISACWVISLILGGLPIMGWNCISALSSCSTVLPLYHKHYILFCTTVFTLLLLSIVILYCRIYSLVRTRAKALIVYGSTTGNTEYTAETIARELADAGYEVDSRDAASVEAGGLFEGFDLVLLGCSTWGDDSIELQDDFIPLFDSLEETGAQGRKVACFGCGDSSWEYFCGAVDAIEEKLKNLGAEIVQDGLRIDGDPRAARDDIVGWAHDVRGAIASRSSENVALLKTVIIVLSVFIACWAPLFILLLLDVGCKVKTCDILFRAEYFLVLAVLNSGTNPIIYTLTNKEMRRAFIRIM
**Q.** Which “stability by SEC (in words)” value does the source give for B1 here?
**A.** stable in the presence or absence of ligand
